Laboratory results reported in the Immune Epitope Database (IEDB).
Each block holds one sequence with its values, some of them ahead of it.

Legend:
HLA-B*18:01 = test: IEDB peptide-MHC binding, purified MHC/competitive/fluorescence; filed as Kd, often an IC50 or EC50 that approximates it; ≥ and ≤ were set here for values at or beyond the usual limits of such assays
HLA-B*15:01 = test: as above
HLA-A*30:01 = test: as above; details: source organism: Human immunodeficiency virus 1
HLA-A*02:03 = test: as above
HLA-A*26:02 = test: as above; details: source organism: Human immunodeficiency virus 1
HLA-B*15:17 = test: as above
HLA-A*11:01 = test: as above; details: source organism: Human immunodeficiency virus 1
HLA-A*01:01 = test: as above; details: source organism: Human immunodeficiency virus 1
HLA-A*02:06 = test: as above; details: source organism: Human immunodeficiency virus 1
HLA-B*15:02 = test: as above
HLA-B*40:01 = test: as above; details: source organism: Salmonella enterica subsp. enterica serovar Typhi
HLA-A*02:11 = test: as above
HLA-A*69:01 = test: as above
HLA-A*02:01 = test: as above
HLA-A*02:19 = test: as above
HLA-A*02:16 = test: as above
HLA-A*02:12 = test: as above
HLA-B*39:01 = test: as above
HLA-B*27:03 = test: as above
HLA-B*46:01 = test: as above
HLA-A*24:03 = test: as above
HLA-B*51:01 = test: as above
HLA-A*03:01 = test: as above
HLA-B*57:01 = test: as above
HLA-A*68:02 = test: as above
HLA-A*29:02 = test: as above; details: source organism: Brucella suis ATCC 23445
HLA-A*26:01 = test: as above
HLA-C*15:02 = test: IEDB peptide-MHC binding, purified MHC/direct/fluorescence; filed as Kd, often an IC50 or EC50 that approximates it; ≥ and ≤ were set here for values at or beyond the usual limits of such assays; details: source organism: Bacillus anthracis str. A2012
HLA-C*14:02 = test: as above; details: source organism: Bacillus anthracis str. A2012
HLA-C*07:02 = test: as above; details: source organism: Bacillus anthracis str. A2012
HLA-C*03:03 = test: as above; details: source organism: Bacillus anthracis str. A2012
HLA-C*06:02 = test: as above; details: source organism: Bacillus anthracis str. A2012
HLA-C*12:03 = test: as above; details: source organism: Bacillus anthracis str. A2012
HLA-B*27:05 = test: IEDB peptide-MHC binding, purified MHC/competitive/fluorescence; filed as Kd, often an IC50 or EC50 that approximates it; ≥ and ≤ were set here for values at or beyond the usual limits of such assays; details: source organism: Salmonella enterica subsp. enterica serovar Typhi
[1] = source organism: Human immunodeficiency virus 1
[2] = source organism: Salmonella enterica subsp. enterica serovar Typhi
[3] = source organism: Brucella suis ATCC 23445
[4] = source organism: Bacillus anthracis str. A2012
[5] = source organism: Escherichia coli HS

Sequence: RSLYNTVAVLY
Kd (HLA-B*18:01; [1]): 0.25 µM | Kd (HLA-B*15:01; [1]): 1.32 µM | Kd (HLA-A*30:01): ≥ 20 µM | Kd (HLA-A*02:03; [1]): 1360 nM | Kd (HLA-A*26:02): 2360 nM | Kd (HLA-B*15:17; [1]): 11.8 nM | Kd (HLA-A*11:01): 1520 nM | Kd (HLA-A*01:01): ≥ 20 µM | Kd (HLA-A*02:06): 596 nM

Sequence: FLRSSSAIE
Kd (HLA-B*15:02; source organism: Coxiella burnetii Dugway 5J108-111): ≥ 20000 nM

Sequence: MEDNFSIYI
Kd (HLA-B*15:01; [2]): ≥ 20 µM | Kd (HLA-B*40:01): 3.4 nM

Sequence: KMGKAGYVT
Kd (HLA-A*02:11; [1]): 24.5 nM | Kd (HLA-A*02:03; [1]): 196 nM | Kd (HLA-A*69:01; [1]): ≥ 20 µM | Kd (HLA-A*02:01; [1]): 323 nM | Kd (HLA-A*02:19; [1]): 6 µM | Kd (HLA-A*02:16; [1]): 261 nM | Kd (HLA-A*02:12; [1]): 1210 nM | Kd (HLA-A*02:06): 609 nM

Sequence: WIGQTSHGW
Kd (HLA-B*15:02; source organism: Vibrio cholerae): ≥ 20000 nM

Sequence: ITAVNRYFK
Kd (HLA-B*18:01; [3]): ≥ 20 µM | Kd (HLA-A*02:11; [3]): ≥ 20000 nM | Kd (HLA-B*39:01; [3]): ≥ 20 µM | Kd (HLA-B*27:03; [3]): ≥ 20 µM | Kd (HLA-B*15:01; [3]): ≥ 20 µM | Kd (HLA-B*46:01; [3]): ≥ 20 µM | Kd (HLA-A*24:03; [3]): ≥ 20 µM | Kd (HLA-A*02:03; [3]): ≥ 20000 nM | Kd (HLA-B*51:01; [3]): ≥ 20 µM | Kd (HLA-B*15:17; [3]): ≥ 20000 nM | Kd (HLA-A*69:01; [3]): ≥ 20 µM | Kd (HLA-A*03:01; [3]): 57 nM | Kd (HLA-B*57:01; [3]): ≥ 20 µM | Kd (HLA-A*02:01; [3]): ≥ 20000 nM | Kd (HLA-A*02:19; [3]): ≥ 20 µM | Kd (HLA-A*02:16; [3]): ≥ 20000 nM | Kd (HLA-A*68:02; [3]): ≥ 20 µM | Kd (HLA-A*02:12; [3]): ≥ 20000 nM | Kd (HLA-A*29:02): 757 nM | Kd (HLA-A*26:01; [3]): ≥ 20 µM

Sequence: GQRDTDVPY
Kd (HLA-B*15:02; source organism: Yersinia enterocolitica subsp. enterocolitica 8081): 1240 nM

Sequence: SMFDSWGPF
Kd (HLA-C*15:02): ≥ 20 µM | Kd (HLA-C*14:02): 185 nM | Kd (HLA-C*07:02): 224 nM | Kd (HLA-C*03:03): ≥ 20 µM | Kd (HLA-C*06:02): ≥ 20 µM | Kd (HLA-C*12:03): 102 nM | Kd (HLA-B*15:02; [4]): 5 nM | Kd (HLA-B*46:01; [4]): 0.0043 µM

Sequence: ALVEMGHHV
Kd (HLA-A*02:11; [1]): 1.8 nM | Kd (HLA-A*02:03; [1]): 3.64 nM | Kd (HLA-A*69:01; [1]): 2.01 µM | Kd (HLA-A*02:01; [1]): 334 nM | Kd (HLA-A*02:19; [1]): 0.134 µM | Kd (HLA-A*02:16; [1]): 3.07 nM | Kd (HLA-A*02:12; [1]): 17.5 nM | Kd (HLA-A*02:06): 1.18 nM

Kd (HLA-B*18:01; [5]): ≥ 20 µM | Kd (HLA-B*39:01; [5]): ≥ 20 µM | Kd (HLA-B*27:03; [5]): ≥ 20 µM | Kd (HLA-B*15:01; [5]): ≥ 20 µM | Kd (HLA-B*46:01; [5]): ≥ 20 µM | Kd (HLA-A*24:03; [5]): ≥ 20 µM | Kd (HLA-B*51:01; [5]): ≥ 20 µM | Kd (HLA-A*69:01; [5]): ≥ 20 µM | Kd (HLA-A*03:01; [5]): 33.9 nM | Kd (HLA-B*57:01; [5]): ≥ 20 µM | Kd (HLA-A*02:01; [5]): ≥ 20000 nM | Kd (HLA-A*02:19; [5]): ≥ 20 µM | Kd (HLA-A*02:16; [5]): ≥ 20000 nM | Kd (HLA-A*68:02; [5]): ≥ 20 µM | Kd (HLA-A*02:12; [5]): ≥ 20000 nM | Kd (HLA-A*26:01; [5]): ≥ 20 µM
Sequence: ISLWGSLLK

Sequence: KQFCLSILL
Kd (HLA-B*27:05): 208 nM | Kd (HLA-B*39:01; [2]): 0.0646 µM | Kd (HLA-A*02:01; [2]): 2.9 nM | Kd (HLA-B*40:01): 90.5 nM
